Measurements from PMC11387253, “High sensitive aptasensing chronic myeloid leukemia on circular electrode-modified by single-walled carbon nanotube”.

Experiments:
[1] = target: T1, CD19 (Homo sapiens, UniProt P15391 20-291); assay: electrochemical (current-volt, SWCN-modified IDE); 10-100 nM CD19; LOD 10 nM; near saturation above 60 nM; Aptamer immobilized on APTMS-SWCN surface, PEG-COOH blocked; 30 min protein incubation; washes 10 mM PBS pH 7.4; room temperature; 0-2 V in 0.1 V steps; conditions: protein: recombinant
[2] = target: CD33 antigen (UniProt P20138 18-259); assay: electrochemical (current-volt, SWCN-modified IDE); 100 nM CD33; Aptamer immobilized on APTMS-SWCN surface, PEG-COOH blocked; 30 min protein incubation; washes 10 mM PBS pH 7.4; room temperature; 0-2 V in 0.1 V steps
[3] = target: T1, CD19; assay: electrochemical (current-volt, SWCN-modified IDE); 100 nM CD19; Aptamer immobilized on APTMS-SWCN surface, PEG-COOH blocked; 30 min protein incubation; washes 10 mM PBS pH 7.4; room temperature; 0-2 V in 0.1 V steps; conditions: protein: recombinant

T1 sequence (P15391 20-291): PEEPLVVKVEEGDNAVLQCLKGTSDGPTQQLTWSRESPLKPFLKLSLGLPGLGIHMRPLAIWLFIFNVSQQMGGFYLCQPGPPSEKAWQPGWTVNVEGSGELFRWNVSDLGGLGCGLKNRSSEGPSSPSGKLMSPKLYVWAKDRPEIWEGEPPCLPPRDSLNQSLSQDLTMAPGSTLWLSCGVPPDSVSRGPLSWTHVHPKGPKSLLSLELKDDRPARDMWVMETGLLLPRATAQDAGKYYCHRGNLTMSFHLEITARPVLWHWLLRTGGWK
Chain of CD33 antigen (P20138 18-259): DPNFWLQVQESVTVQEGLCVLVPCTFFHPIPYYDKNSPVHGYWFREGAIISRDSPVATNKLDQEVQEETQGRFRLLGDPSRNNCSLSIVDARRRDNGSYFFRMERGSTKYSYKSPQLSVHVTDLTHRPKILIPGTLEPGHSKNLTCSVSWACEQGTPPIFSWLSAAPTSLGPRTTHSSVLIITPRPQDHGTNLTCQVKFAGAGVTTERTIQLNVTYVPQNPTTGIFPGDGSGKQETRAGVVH

Binder	binding result [1]	binding result [2]	binding result [3]
CD19 aptamer (ssDNA, 5' C6-COOH) DNA: TGCGTGTGTAGTGTGTCTGTTCTCCTTTTTTTGGTTGCTGCTCTTAGGGATTTGGGCGG	binds	no binding	–
complementary aptamer (ssDNA, 5' C6-COOH) DNA: ACGCACACATCACACAGACAAGAGGAAAAAAACCAACGACGAGAATCCCTAAACCCGCC	–	–	no binding
